In patent US20220389082A1 (CSL BEHRING LENGNAU, published 2022):

Assays:
[1] = target: T1, D′D3 albumin fusion protein (D′D3-FP), dimer (human, Covalent homodimer: the two chains are joined by disulfide bridge(s) within the D3 part (paragraph 124 names Cys-1099, Cys-1142, Cys-1222, Cys-1225, Cys-1227 in SEQ ID NO:4 numbering). N-glycosylated, …); experiment: SPR (Biacore T200), D′D3-FP captured on anti-albumin antibody, rVIII-SingleChain as analyte, single cycle kinetics, 25° C.; D′D3-FP dimer preparation
T1 construct: It was expressed in CHO K1 cells with the VWF propeptide, which is cleaved by co-transfected furin; The dimer fraction was isolated by size exclusion chromatography; The description says the dimer is a disulfide-linked homodimer; In the SPR assay it was captured on an anti-albumin antibody; also called dimeric D′D3-FP; rD′D3-FP
T1 sequence (chain, as listed by the source limits assumed, chain 1 of 2): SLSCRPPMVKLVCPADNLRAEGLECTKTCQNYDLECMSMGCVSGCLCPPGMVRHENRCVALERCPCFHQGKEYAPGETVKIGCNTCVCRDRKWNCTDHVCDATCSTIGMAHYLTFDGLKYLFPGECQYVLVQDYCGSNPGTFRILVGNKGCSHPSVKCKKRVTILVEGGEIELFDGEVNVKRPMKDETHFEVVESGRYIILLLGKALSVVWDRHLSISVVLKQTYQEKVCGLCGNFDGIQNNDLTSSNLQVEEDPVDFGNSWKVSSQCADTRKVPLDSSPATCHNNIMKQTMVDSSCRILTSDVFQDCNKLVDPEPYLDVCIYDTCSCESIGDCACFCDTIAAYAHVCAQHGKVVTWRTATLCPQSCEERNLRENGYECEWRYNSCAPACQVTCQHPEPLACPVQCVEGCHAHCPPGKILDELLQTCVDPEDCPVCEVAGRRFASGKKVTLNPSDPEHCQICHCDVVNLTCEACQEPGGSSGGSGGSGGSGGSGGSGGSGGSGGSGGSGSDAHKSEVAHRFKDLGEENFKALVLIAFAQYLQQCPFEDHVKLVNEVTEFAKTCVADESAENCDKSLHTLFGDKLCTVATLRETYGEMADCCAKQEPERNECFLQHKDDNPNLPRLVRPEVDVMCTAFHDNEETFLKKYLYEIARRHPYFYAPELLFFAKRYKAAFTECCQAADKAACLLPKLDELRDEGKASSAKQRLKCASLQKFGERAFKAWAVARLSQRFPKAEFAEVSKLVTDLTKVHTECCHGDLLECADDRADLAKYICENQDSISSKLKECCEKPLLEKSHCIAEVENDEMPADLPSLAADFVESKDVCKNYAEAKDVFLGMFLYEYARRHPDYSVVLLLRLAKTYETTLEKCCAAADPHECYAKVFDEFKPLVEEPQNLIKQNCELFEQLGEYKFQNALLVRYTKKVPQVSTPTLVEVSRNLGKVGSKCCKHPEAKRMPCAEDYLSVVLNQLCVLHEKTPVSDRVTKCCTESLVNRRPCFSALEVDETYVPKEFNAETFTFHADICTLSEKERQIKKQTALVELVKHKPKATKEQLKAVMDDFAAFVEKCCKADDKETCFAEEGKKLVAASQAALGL
T1 sequence (chain, as listed by the source limits assumed, chain 2 of 2): as the sequence (chain, as listed by the source limits assumed, chain 1 of 2) above
Method: (§1) An anti-albumin antibody (MA1-20124, Thermo Scientific) was covalently coupled via its N-terminus to an activated CM 3 chip by NHS (N-Hydroxysuccinimide) and EDC […], both contained in the amine coupling kit (BR1000-50) from GE Healthcare. For immobilization 3 μg/mL of the antibody were diluted in sodium acetate buffer (10 mM, pH 5.0) and the antibody solution was flown over the chip for 7 min. at a flow rate of 10 μL/min. After the immobilization procedure non-coupled dextran filaments were saturated by flowing ethanolamine solution (1 M, pH 8.3) over the chip for 5 min (at a flow rate of 10 μL/min). The aim of saturating the flow cell was to minimize unspecific binding of the analytes to the chip. A reference flow cell was set up by saturating an empty flow cell with ethanolamine by using the same procedure as above.
(§2) Dimeric and monomeric D′D3-FP proteins, respectively, were immobilized to the covalently coupled anti-albumin antibody by a flow of the D′D3-FP proteins (5 μg/mL) over the chip for 3 min (flow rate of 10 μL/min).
(§3) To create binding curves for FVIII, each D′D3-FP protein preparation was diluted in running buffer (HBS-P+: 0.1 M HEPES, 1.5 M NaCl and 0.5% v/v Surfactant P20, pH 7.4; product code BR100671, GE Healthcare) to concentrations of 0.25 nM, 0.5 nM, 1 nM, 3 nM and 4 nM. […]

[2] = target: T1, D′D3 albumin fusion protein (D′D3-FP), …; experiment: SPR (Biacore T200), D′D3-FP captured on anti-albumin antibody, rVIII-SingleChain as analyte, single cycle kinetics, 25° C.
Method: as §1, §2, §3

B1: rVIII-SingleChain (single chain Factor VIII molecule, construct dBN(64-53) of WO 2004/067566) (other)
chain: ATRRYYLGAVELSWDYMQSDLGELPVDARFPPRVPKSFPFNTSVVYKKTLFVEFTDHLFNIAKPRPPWMGLLGPTIQAEVYDTVVITLKNMASHPVSLHAVGVSYWKASEGAEYDDQTSQREKEDDKVFPGGSHTYVWQVLKENGPMASDPLCLTYSYLSHVDLVKDLNSGLIGALLVCREGSLAKEKTQTLHKFILLFAVFDEGKSWHSETKNSLMQDRDAASARAWPKMHTVNGYVNRSLPGLIGCHRKSVYWHVIGMGTTPEVHSIFLEGHTFLVRNHRQASLEISPITFLTAQTLLMDLGQFLLFCHISSHQHDGMEAYVKVDSCPEEPQLRMKNNEEAEDYDDDLTDSEMDVVRFDDDNSPSFIQIRSVAKKHPKTWVHYIAAEEEDWDYAPLVLAPDDRSYKSQYLNNGPQRIGRKYKKVRFMAYTDETFKTREAIQHESGILGPLLYGEVGDTLLIIFKNQASRPYNIYPHGITDVRPLYSRRLPKGVKHLKDFPILPGEIFKYKWTVTVEDGPTKSDPRCLTRYYSSFVNMERDLASGLIGPLLICYKESVDQRGNQIMSDKRNVILFSVFDENRSWYLTENIQRFLPNPAGVQLEDPEFQASNIMHSINGYVFDSLQLSVCLHEVAYWYILSIGAQTDFLSVFFSGYTFKHKMVYEDTLTLFPFSGETVFMSMENPGLWILGCHNSDFRNRGMTALLKVSSCDKNTGDYYEDSYEDISAYLLSKNNAIEPRSFSQNSRHPSTRQKQFNATTIPENTTLQSDQEEIDYDDTISVEMKKEDFDIYDEDENQSPRSFQKKTRHYFIAAVERLWDYGMSSSPHVLRNRAQSGSVPQFKKVVFQEFTDGSFTQPLYRGELNEHLGLLGPYIRAEVEDNIMVTFRNQASRPYSFYSSLISYEEDQRQGAEPRKNFVKPNETKTYFWKVQHHMAPTKDEFDCKAWAYFSDVDLEKDVHSGLIGPLLVCHTNTLNPAHGRQVTVQEFALFFTIFDETKSWYFTENMERNCRAPCNIQMEDPTFKENYRFHAINGYIMDTLPGLVMAQDQRIRWYLLSMGSNENIHSIHFSGHVFTVRKKEEYKMALYNLYPGVFETVEMLPSKAGIWRVECLIGEHLHAGMSTLFLVYSNKCQTPLGMASGHIRDFQITASGQYGQWAPKLARLHYSGSINAWSTKEPFSWIKVDLLAPMIIHGIKTQGARQKFSSLYISQFIIMYSLDGKKWQTYRGNSTGTLMVFFGNVDSSGIKHNIFNPPIIARYIRLHPTHYSIRSTLRMELMGCDLNSCSMPLGMESKAISDAQITASSYFTNMFATWSPSKARLHLQGRSNAWRPQVNNPKEWLQVDFQKTMKVTGVTTQGVKSLLTSMYVKEFLISSSQDGHQWTLFFQNGKVKVFQGNQDSFTPVVNSLDPPLLTRYLRIHPQSWVHQIALRMEVLGCEAQDLY
notes: also called FVIII
Kd [1]: 0.034 nM
koff [2]: 0.0015 s⁻¹
kon [2]: 4.5e+07 M⁻¹ s⁻¹
